Target: T1, TALER14 (synthetic, UniProt Q56830 SEQ:262-1310)
T1 chain: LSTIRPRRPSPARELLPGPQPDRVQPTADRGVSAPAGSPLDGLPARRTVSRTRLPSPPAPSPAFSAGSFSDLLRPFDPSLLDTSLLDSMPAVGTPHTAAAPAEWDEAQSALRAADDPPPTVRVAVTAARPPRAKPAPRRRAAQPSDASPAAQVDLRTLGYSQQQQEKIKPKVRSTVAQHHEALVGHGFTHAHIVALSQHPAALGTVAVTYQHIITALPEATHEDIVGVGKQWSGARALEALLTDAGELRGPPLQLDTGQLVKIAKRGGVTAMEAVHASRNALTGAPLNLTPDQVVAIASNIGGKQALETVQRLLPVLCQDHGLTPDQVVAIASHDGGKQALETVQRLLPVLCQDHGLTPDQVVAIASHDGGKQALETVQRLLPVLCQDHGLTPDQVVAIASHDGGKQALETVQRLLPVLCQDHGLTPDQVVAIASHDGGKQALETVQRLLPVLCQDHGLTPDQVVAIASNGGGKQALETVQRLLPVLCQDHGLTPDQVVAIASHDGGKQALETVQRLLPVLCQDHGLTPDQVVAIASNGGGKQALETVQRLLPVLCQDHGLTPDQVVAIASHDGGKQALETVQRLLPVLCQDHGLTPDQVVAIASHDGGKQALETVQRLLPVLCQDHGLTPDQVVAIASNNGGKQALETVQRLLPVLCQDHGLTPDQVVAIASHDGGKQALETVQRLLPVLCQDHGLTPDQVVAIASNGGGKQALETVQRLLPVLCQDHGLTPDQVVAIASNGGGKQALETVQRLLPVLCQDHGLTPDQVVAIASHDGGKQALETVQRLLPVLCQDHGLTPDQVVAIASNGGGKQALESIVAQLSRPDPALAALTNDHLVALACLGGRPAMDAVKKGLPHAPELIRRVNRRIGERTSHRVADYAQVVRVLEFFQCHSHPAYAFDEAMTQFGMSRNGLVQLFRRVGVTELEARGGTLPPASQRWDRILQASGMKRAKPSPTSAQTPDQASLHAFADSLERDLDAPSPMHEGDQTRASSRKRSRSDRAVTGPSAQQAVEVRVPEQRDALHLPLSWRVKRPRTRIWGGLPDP
Test: cell_activity; HEK293, two sites flanking CMVmini
Settings: tags: EYFP-2A upstream, SV40 NLS

B1: T14 site (dsDNA)
DNA 1: TACCCCTCTCCGCTTCT
DNA 2: AGAAGCGGAGAGGGGTA
binding signal: 1440 fold repression

From patent US20200071711, “MODULAR CONSTRUCTION OF SYNTHETIC GENE CIRCUITS IN MAMMALIAN CELLS USING MATHEMATICAL MODELING OF CLOSED LOOP TRANSCRIPTIONAL REPRESSORS” (Tsinghua University, published 2020)
